Source: the supplement of paper PMC9732359
± gives the uncertainty stated by the source.

Experiment: protein stability index of a GFP-peptide fusion (yeast GPS) (PSI 1-4); higher = more stable; sorted into four equal gates, so the index is relative within each strain
Conditions: pdr5∆
How it was run: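 Tiled 17-residue peptides from yeast proteins were fused downstream of GFP on a plasmid that also expresses Cherry, and the pooled library was carried in yeast. Mid-log cultures grown in leucine-free medium were sorted into four equal gates by GFP/Cherry fluorescence ratio. Plasmids from each gate were PCR-amplified and Illumina-sequenced, and reads were assigned to strains by barcodes. Each peptide's protein stability index is the sum, over gates, of the gate's read frequency multiplied by its gate number.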

Sequence | protein stability index
LRHMPLASIPDIFITPT [SSN2] | 1.69 ± 0.054
LRKQKDSSTTSSNSQQS [ITC1] | 3.04 ± 0.066
LRRSGQIANDPSKKRRR [SMD1] | 3.01 ± 0.15
LRSDFYILANHYLSRVL [YJL039C/NUP192] | 2.85 ± 0.07
LRSKLFQFKLLQSNSKL [SMC4] | 1.79 ± 0.053
LSALNSEISSLKGKINN [SMC1] | 3 ± 0.092
LSDIETAVNGIDTDLFG [YGL172W/NUP49] | 3.16 ± 0.086
LSDLSSPVQDWNLLRSL [YML103C/NUP188] | 3.07 ± 0.17
LSDYEVLKFLTDLEKKH [RPC17] | 3.23 ± 0.12
LSDYIPGPYPNEQAARA [CYT1] | 2.54 ± 0.05
LSEEETLLVIRRLHKVL [SNF2] | 2.22 ± 0.07
LSERKAEKAEIRKRRAS [RPS6A] | 3.06 ± 0.23
LSGIIQDIYYLAQTLKL [RRI2] | 1.66 ± 0.14
LSGLSADKPFTRLTAYQ [YML031W/NDC1] | 3.14 ± 0.06
LSIICVGGHNVTIREQI [SIR3] | 1.65 ± 0.042
LSILNEIKKVTQIVAKF [SIN4] | 2.39 ± 0.14
LSKLEKALDRHEFFIAN [SRP68] | 2.61 ± 0.045
LSLYSTDLENSSLFQEK [ECM29] | 2.81 ± 0.077
LSMNIAPRLRLEDIFQQ [RET1] | 1.92 ± 0.038
LSNLHESNKRYRFFKKI [SNF12] | 2.68 ± 0.081
LSQNESTRASTVPNLPT [ISW2] | 2.5 ± 0.063
LSRKPSDNKKRSGSNAA [RPC82] | 3.31 ± 0.064
LSSDEKRELLKRYRLKE [RPB5] | 3.27 ± 0.17
LSSELDSNKTLLHNHLK [SMC2] | 3.26 ± 0.058
LSTSVGWKYEDVVAKLE [RPL16A] | 3.29 ± 0.21
LTALGKEKEKEREEAEK [MED2] | 1.43 ± 0.16

Sequence | protein stability index
LTDHRKETWLHELSSSH [SRB8] | 3.58 ± 0.19
LTDLDSPSEFVDVAIPC [RPS0A] | 2.46 ± 0.073
LTEGGSILEEKIAVLNN [SMC1] | 2.85 ± 0.15
LTESQTETYISDLVNQG [RPN5] | 3.38 ± 0.071
LTFNSKNIQSKDSYINA [FAS2] | 2.72 ± 0.076
LTGNQLPTPTPTEMEPD [SWI1] | 2.92 ± 0.052
LTHPKYLNSRIIPTTLE [YML103C/NUP188] | 2.26 ± 0.041
LTNEISDLKGKLSSAEN [YIL149C/MLP2] | 3.29 ± 0.13
LTSFAEENNYQYGYSGS [SNF6] | 2.22 ± 0.093
LTSVTNDICSVENYETS [SIR4] | 2.35 ± 0.057
LTVDNLSIAIVGKDTPF [PRE5] | 2.66 ± 0.05
LVDKRIDMLPMLLGTDL [DIS3] | 2.54 ± 0.1
LVDQGFNYSGKDMLYSG [RET1] | 3.29 ± 0.083
LVGSEIYEKLKNYLKNY [CDC53] | 1.21 ± 0.12
LVLPPVVTSSVAESFTD [SNF2] | 2.02 ± 0.057
LVNGFSQSQQKLLKEKV [MED2] | 2.27 ± 0.068
LVNIRTQTSKEQEIENN [ITC1] | 3.05 ± 0.067
LVPPPRTIANQDHFHRL [RPR2] | 3.15 ± 0.069
LVQKTVQESGNIDYQKG [GRR1] | 3.37 ± 0.095
LVRSIIAFDDLIENKIQ [RPN8] | 1.92 ± 0.12
LVSEKIINSTALMKEKD [RPC82] | 3.11 ± 0.081
LVSVTSTLQHFQETLDS [MED8] | 2.7 ± 0.063
LVVYAEDNGIVKALRNV [RPL4A] | 3.16 ± 0.12
LVYDVKGRFAVHRITDE [RPS4A] | 3.08 ± 0.11
LWRNFCRKLSFSDKVNA [ITC1] | 1.76 ± 0.2
LYAVSTFENTNNTEKND [SIR4] | 2.4 ± 0.075

Sequence | protein stability index
LYQIWIVMVWLKENTYV [YDL116W/NUP84] | 1.77 ± 0.062
LYQLFKTCIQGINSPLS [YJL039C/NUP192] | 2.05 ± 0.087
LYRYRFDPFQAVSRSMT [ECM29] | 2.65 ± 0.049
LYVPRKCSATNRIIKAD [RPS21A] | 1.83 ± 0.2
LYYPQKPLGTTRAMEYL [RPB2] | 2.9 ± 0.15
MAISKNLPILKNHFRKH [RPL13A] | 2.89 ± 0.079
MAKCLDNPDQGISDMCR [YCS4] | 3.55 ± 0.13
MANIPERIINVGVIGPL [SNU114] | 2.79 ± 0.16
MAPFRQDSILIIYPRSQ [ARP9] | 2.69 ± 0.17
MAPSAKATAAKKAVVKG [RPL25] | 2.56 ± 0.15
MAQNKTHIPQTNLKNHP [YLR018C/POM34] | 2.98 ± 0.057
MASLPHPKIVKKHTKKF [RPL32] | 2.97 ± 0.093
MASRVDETTVPSYYYYV [ROX3] | 2.24 ± 0.05
MAVGKNKRLSKGKKGQK [RPS1A] | 1.62 ± 0.086
MAYFDENLNRNWRGREH [BRN1] | 3.41 ± 0.16
MDALTLMKCCHEAYSII [RRP45] | 2.04 ± 0.071
MDIILGIRVQDSVILAS [PRE1] | 1.62 ± 0.2
MDLLKFSSLAISEINFL [CSI1] | 2.49 ± 0.037
MEDIEKIKPYVRSFSKA [LRP1] | 3 ± 0.05
MEEEQQRQERLRQQQQQ [RPN10] | 2.86 ± 0.25
MENNEPAMAMEDLKNFI [SRB8] | 3.29 ± 0.081
MFAYAKEHEPCIIFMDE [RPT4] | 2.32 ± 0.05
MFLYILKHLEEMGKLRE [RRI2] | 3.16 ± 0.11
MFRNNYDGDTVTFSPTG [PRE5] | 2.84 ± 0.096
MFTQIYLERIELSFYIL [YML103C/NUP188] | 1.46 ± 0.074
MGKGKPRGLNSARKLRV [RPS23A] | 3.05 ± 0.08

Sequence | protein stability index
MGPLSNIAQMIPGMSNM [SRP54] | 2.75 ± 0.045
MGRVIRNQRKGAGSIFT [RPL2A] | 3.28 ± 0.12
MGVPIYGIVAMAATATD [FAS2] | 1.52 ± 0.052
MIKESSTANPNIKLLNN [POP1] | 2.9 ± 0.11
MIQEVIVEEDLEPFEAS [FAS2] | 3.16 ± 0.11
MISIIKLVTNVVDPKTS [YML103C/NUP188] | 1.81 ± 0.045
MKAVRKVAEVKKLEGTI [RPT4] | 3.2 ± 0.1
MKFQESLKKVDEIKAQR [SMC4] | 3.57 ± 0.26
MKKKLELISYRNESLKN [SRB8] | 2.98 ± 0.058
MKLNISYPVNGSQKTFE [RPS6A] | 2.77 ± 0.12
MKLSMPPEVTSSNCHVR [POP1] | 2.6 ± 0.075
MKNENANPKKLALMTAH [CDC53] | 2.33 ± 0.046
MKRNCGQIITLFSSRRL [RMP1] | 2.46 ± 0.053
MLLANISVARKIYDAFP [DIS3] | 1.91 ± 0.041
MLLITSGDSGVYTLACR [RPC11] | 2.45 ± 0.13
MLLLNIFISSDHEFVLI [YMR129W/POM152] | 1.28 ± 0.055
MLLVDIIPSRMGEAQTG [REC8] | 1.87 ± 0.073
MLQKKLVEVEDEKIEAI [SRB7] | 3.37 ± 0.1
MLTIARLGFFYNDQLYV [RPN7] | 1.66 ± 0.19
MLVKAVANSTKAAFIRV [RPT3] | 1.5 ± 0.047
MMEEIINVVIKASRKSV [ECM29] | 1.75 ± 0.068
MMLGEHLMSWSKTGIIA [SIN4] | 1.24 ± 0.11
MMVNNQTMQLIKNVQDL [SRB6] | 2.3 ± 0.16
MNDVINTEEVNRLEKEQ [LIN1] | 3.31 ± 0.17
MNGIQVDINRLKKGEVS [PRE3] | 1.57 ± 0.063
